This passage reports Kd results from PMC3743801.

In this assay the target is C-terminal vinculin homology domain of α-catenin (α-catenin635–906) (UniProt P35221). The assay can be described thus: fluorescence polarisation; fluorescence anisotropy of FITC-labelled EspB fragments (fluorescein at the N-terminus) and of EspB with α-catenin635–906; KD by nonlinear curve fitting; buffer and temperature not stated. On the technique in general: In fluorescence polarisation assays a small probe gives low polarisation when free and higher when bound to something large.
UniProt P35221, sequence (P35221 635-906): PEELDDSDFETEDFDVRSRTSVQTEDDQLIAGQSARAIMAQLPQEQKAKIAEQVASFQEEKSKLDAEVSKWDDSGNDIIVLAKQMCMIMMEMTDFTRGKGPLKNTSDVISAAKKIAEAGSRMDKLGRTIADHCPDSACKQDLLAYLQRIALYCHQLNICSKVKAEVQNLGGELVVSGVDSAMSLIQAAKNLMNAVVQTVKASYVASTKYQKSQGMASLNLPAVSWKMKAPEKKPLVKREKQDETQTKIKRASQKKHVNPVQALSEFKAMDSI
The term Kd denotes the concentration at which binding is half-saturated. Low readings indicate a tighter complex, high ones a looser complex. EspB41–60 (peptide) yielded a Kd of 23 µM.

The substance EspB41–70 (peptide) came in with a dissociation constant Kd of 2.5 µM. Next, “EspB from enterohaemorrhagic E. coli (EHEC) (natural protein)”: 2.9 µM. Substance EspB51–70 (peptide) had a Kd of 12 µM. This Kd is about 4.1-fold higher than that of the substance before.
